US20230227838A1, “ENHANCED CELL SURVIVAL AGAINST BIOTIC AND ABIOTIC STRESSES THROUGH SALICYLICK ACID-INDUCED NPR1 CONDENSATES” (priority 2020, published 2023)

Molecular target: sim3-GFP (Arabidopsis thaliana) (UniProt P93002)
Test: sim3-GFP IP, LC-MS/MS

Sequence of sim3-GFP (Arabidopsis thaliana) (P93002 other isoform, or with tags, fused parts or gaps): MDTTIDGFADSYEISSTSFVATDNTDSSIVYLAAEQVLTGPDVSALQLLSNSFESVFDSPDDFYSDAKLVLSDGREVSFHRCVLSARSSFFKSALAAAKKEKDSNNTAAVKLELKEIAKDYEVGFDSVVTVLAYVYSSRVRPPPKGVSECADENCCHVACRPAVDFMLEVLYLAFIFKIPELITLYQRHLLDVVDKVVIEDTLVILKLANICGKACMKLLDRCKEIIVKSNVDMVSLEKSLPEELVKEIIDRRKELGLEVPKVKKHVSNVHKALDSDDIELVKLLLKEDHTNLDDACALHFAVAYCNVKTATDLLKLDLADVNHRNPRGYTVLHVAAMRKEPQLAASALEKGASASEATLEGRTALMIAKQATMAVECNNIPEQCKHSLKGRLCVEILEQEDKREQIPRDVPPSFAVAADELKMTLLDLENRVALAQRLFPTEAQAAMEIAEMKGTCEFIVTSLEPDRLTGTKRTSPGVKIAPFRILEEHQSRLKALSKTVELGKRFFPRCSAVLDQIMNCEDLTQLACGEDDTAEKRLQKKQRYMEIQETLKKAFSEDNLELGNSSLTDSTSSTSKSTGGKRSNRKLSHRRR

| Normalized Fold Change: SA vs Mock | Binder |
| --- | --- |
| 11.2 fold | NTF2B, nuclear transport factor 2B (protein, UniProt Q9C7F5 2-126, looked up) Nuclear transport factor 2B: SQMDPDAVSKAFVEHYYSTFDTNRVGLAGLYQEASMLTFEGQKIQGVQSIVAKLTSLPFQQCKHHISTVDCQPSGPASGMLVFVSGNLQLAGEEHALKFSQMFHLMPTPQGSFYVFNDIFRLNYA |
| 2.01 fold | GRF6, G-box regulating factor 6 (protein, UniProt P48349 1-248, looked up) 14-3-3-like protein G-BOX factor 14 lambda: MAATLGRDQYVYMAKLAEQAERYEEMVQFMEQLVTGATPAEELTVEERNLLSVAYKNVIGSLRAAWRIVSSIEQKEESRKNDEHVSLVKDYRSKVESELSSVCSGILKLLDSHLIPSAGASESKVFYLKMKGDYHRYMAEFKSGDERKTAAEDTMLAYKAAQDIAAADMAPTHPIRLGLALNFSVFYYEILNSSDKACNMAKQAFEEAIAELDTLGEESYKDSTLIMQLLRDNLTLWTSDMQEQMDEA |
| 2.5 fold | ADL3, CF1, DL3, DRP2B, dynamin-like 3 (protein, UniProt Q9LQ55 1-920, looked up) Dynamin-2B: MEAIDELSQLSDSMRQAASLLADEDPDETSSSRRPATSLNVVALGNVGAGKSAVLNSLIGHPVLPTGENGATRAPIIIDLSREESLSSKAIILQIDNKNQQVSASALRHSLQDRLSKGASGRGRDEIYLKLRTSTAPPLKLIDLPGLDQRIVDDSMIGEHAQHNDAILLVVVPASQASEISSSRALKIAKEYDPESTRTVGIISKIDQAAENPKSLAAVQALLSNQGPPKTTDIPWVALIGQSVSIASAQSGGSENSLETAWRAESESLKSILTGAPQSKLGRIALVDTLASQIRSRMKLRLPNILTGLQGKSQIVQDELARLGEQLVSSAEGTRAIALELCREFEDKFLLHLAGGEGSGWKVVASFEGNFPNRIKKLPLDRHFDLNNVKRIVLEADGYQPYLISPEKGLRSLIKTVLELAKDPARLCVDEVHRVLVDIVSASANATPGLGRYPPFKREVVAIASAALDGFKNEAKKMVVALVDMERAFVPPQHFIRLVQRRMERQRREEELKGRSSKKGQDAEQSLLNRATSPQPDGPSSTGGSLKSLRDKLMPQDKDKDKEKETPEVSGLKTAGPEGEITAGYLMKKSAKTNGWSRRWFVLNEKTGKLGYTKKQEERNFRGTVTLEECSIEEISDDEGEKSKSSKDKKSNGPDSKGPGLVFKITCRVPYKTVLKAHNALVLKAESMVDKNEWINKLQKVIQARGGQVGSASMRQSLSEGSLDKMVRKPVDPEEELRWMSQEVRGYVEAVLNSLAANVPKAVVLCQVEKSKEDMLNQLYSSISAIGNERIESLIQEDQNVKRRRDRYQKQSSLLSKLTRQLSIHDNRAAAASSWSDNSGTESSPRTNGGSSGEDWMNAFNAAASGPDSLKRYGSGGHSRRYSDPAQNGEDSSGSGGSSRRTTPNRLPPAPPQSGSSYRY |

Second part, the binder before the results:

| Binder | Normalized Fold Change: SA vs Mock |
| --- | --- |
| VLN2, villin 2 (protein, UniProt O81644 1-976, looked up) Villin-2: MSTKVLDPAFQGAGQKPGTEIWRIENFEAVPVPKSEHGKFYMGDTYIVLQTTQNKGGAYLFDIHFWIGKDTSQDEAGTAAVKTVELDAVLGGRAVQHREIQGHESDKFLSYFKPCIIPLEGGVASGFKTVEEEVFETRLYTCKGKRAIRLKQVPFARSSLNHDDVFILDTEEKIYQFNGANSNIQERAKALEVVQYLKDKYHEGTCDVAIVDDGKLDTESDSGAFWVLFGGFAPIGRKVANDDDIVPESTPPKLYCITDGKMEPIDGDLSKSMLENTKCYLLDCGAEIYIWVGRVTQVDERKAASQSAEEFLASENRPKATHVTRVIQGYESHSFKSNFDSWPSGSATPGNEEGRGKVAALLKQQGVGLKGIAKSAPVNEDIPPLLESGGKLEVWYVNGKVKTPLPKEDIGKLYSGDCYLVLYTYHSGERKDEYFLSCWFGKKSIPEDQDTAIRLANTMSNSLKGRPVQGRIYEGKEPPQFVALFQPMVVLKGGLSSGYKSSMGESESTDETYTPESIALVQVSGTGVHNNKAVQVETVATSLNSYECFLLQSGTSMFLWHGNQSTHEQLELATKVAEFLKPGITLKHAKEGTESSTFWFALGGKQNFTSKKASSETIRDPHLFSFAFNRGKFQVEEIYNFAQDDLLTEDIYFLDTHAEVFVWVGQCVEPKEKQTVFEIGQKYIDLAGSLEGLHPKVPIYKINEGNEPCFFTTYFSWDATKAIVQGNSFQKKASLLFGTHHVVEDKSNGGNQGLRQRAEALAALNSAFNSSSNRPAYSSQDRLNESHDGPRQRAEALAALSSAFNSSSSSTKSPPPPRPVGTSQASQRAAAVAALSQVLVAENKKSPDTSPTRRSTSSNPADDIPLTEAKDEEEASEVAGLEAKEEEEVSPAADETEAKQETEEQGDSEIQPSGATFTYEQLRAKSENPVTGIDFKRREAYLSEEEFQSVFGIEKEAFNNLPRWKQDLLKKKFDLF | 3.54 fold |
| RH39 (protein, UniProt Q56X76 1-621, looked up) DEAD-box ATP-dependent RNA helicase 39: MVGASRTILSLSLSSSLFTFSKIPHVFPFLRLHKPRFHHAFRPLYSAAATTSSPTTETNVTDPDQLKHTILLERLRLRHLKESAKPPQQRPSSVVGVEEESSIRKKSKKLVENFQELGLSEEVMGALQELNIEVPTEIQCIGIPAVMERKSVVLGSHTGSGKTLAYLLPIVQLMREDEANLGKKTKPRRPRTVVLCPTRELSEQVYRVAKSISHHARFRSILVSGGSRIRPQEDSLNNAIDMVVGTPGRILQHIEEGNMVYGDIAYLVLDEADTMFDRGFGPEIRKFLAPLNQRALKTNDQGFQTVLVTATMTMAVQKLVDEEFQGIEHLRTSTLHKKIANARHDFIKLSGGEDKLEALLQVLEPSLAKGSKVMVFCNTLNSSRAVDHYLSENQISTVNYHGEVPAEQRVENLKKFKDEEGDCPTLVCTDLAARGLDLDVDHVVMFDFPKNSIDYLHRTGRTARMGAKGKVTSLVSRKDQMLAARIEEAMRNNESLESLTTDNVRRDAARTHITQEKGRSVKQIREVSKQRNSRDKPSSSSPPARSTGGKTPVRKSSSSSFSKPRKASSPPEKSSKPKRKILKTVGSRSIAARGKTGSDRRPGKKLSVVGFRGKSSSARAS | 46.9 fold |
| FPA, RNA binding (protein, UniProt Q8LPQ9 1-901, looked up) Flowering time control protein FPA: MALSMKPFRADDSGFQSNNLWVGSLTPETTESDLTELFGRYGDIDRITVYSSRGFAFIYYRHVEEAVAAKEALQGANLNGSQIKIEYARPAKPCKSLWVGGIGPNVSKDDLEEEFSKFGKIEDFRFLRERKTAFIDYYEMDDALQAKSMNGKPMGGSFLRVDFLRSQAPKKEQWAGSYDNRNGNMNHKPQYPHSYEDFKGDVQPSKVLWIGFPPTATQCNDEQILHNAMILFGEIERVKSYPSRNFALVEFRSAEEARQCKEGLQGRLFNNPRIKIMYSNDELPPEQDDTSFYSGMKRSRTDMFNNDPSFVSSPHSTGIPGSMRPLRGTNERSYNGAEYNDVVGKEPNWRRPSANGTGILPSPTGPGILPSPAQGTRRPMRSNPDSWEGYDPAQLVRESKRTRRDGSVDGFTPMGVDERSFGRGSVAARPIRGPPDSDHIWRGMIAKGGTPVCCARCVPMGKGIETKLPEVVNCSARTDLNMLAKHYAVAIGCEIVFFVPDREEDFASYTEFLRYLSSKDRAGVAKLDDGTTLFLVPPSDFLTDVLQVTRQERLYGVVLKLPPPAVPVTASYRQESQSNPLHYMDQARDSPANASHSLYPPRENYIRGAPEHLTAASKPSVSEPLRIPNNAAPQAGVSLTPELLATLASILPATSQPAAPESHQPMSGPSTVVSTAHQSNGLYNGEAPSQAWKRGPQTVHDASNQSFQQYGNQYTPAGQLPPPPSRYPPASNNPNYTSGMVHGNMQYQSQSVNMPQLSPLPNMPHNNYSMYTQGSSNHPVSQPMVQQYQPEASMPNQNYGPIPSYQQANFHGVTTNQAQNLNPSQFQAAMQPPADKANLEPQNQALRLQPMISGDGQGTTDGEVDKNQRYQSTLQFAANLLLQIQQKQQQQSSGTPAGQGP | 4.87 fold |
| PCS1, phytochelatin synthase 1 (PCS1) (protein, UniProt Q9S7Z3 1-485, looked up) Glutathione gamma-glutamylcysteinyltransferase 1: MAMASLYRRSLPSPPAIDFSSAEGKLIFNEALQKGTMEGFFRLISYFQTQSEPAYCGLASLSVVLNALSIDPGRKWKGPWRWFDESMLDCCEPLEVVKEKGISFGKVVCLAHCSGAKVEAFRTSQSTIDDFRKFVVKCTSSENCHMISTYHRGVFKQTGTGHFSPIGGYNAERDMALILDVARFKYPPHWVPLKLLWEAMDSIDQSTGKRRGFMLISRPHREPGLLYTLSCKDESWIEIAKYLKEDVPRLVSSQHVDSVEKIISVVFKSLPSNFNQFIRWVAEIRITEDSNQNLSAEEKSRLKLKQLVLKEVHETELFKHINKFLSTVGYEDSLTYAAAKACCQGAEILSGSPSKEFCCRETCVKCIKGPDDSEGTVVTGVVVRDGNEQKVDLLVPSTQTECECGPEATYPAGNDVFTALLLALPPQTWSGIKDQALMHEMKQLISMASLPTLLQEEVLHLRRQLQLLKRCQENKEEDDLAAPAY | 3.43 fold |
